# Source: PMC5772613, “Phosphorylation induced cochaperone unfolding promotes kinase recruitment and client class-specific Hsp90 phosphorylation” (Nature Communications, 2018)
# B1: Full-length human Cdc37 [human] / Catalytic domain of bRaf [not stated] (parent complex)
# chain 1: MVDYSVWDHIEVSDDEDETHPNIDTASLFRWRHQARVERMEQFQKEKEELDRGCRECKRKVAECQRKLKELEVAEGGKAELERLQAEAQQLRKEERSWEQKLEEMRKKEKSMPWNVDTLSKDGFSKSMVNTKPEKTEEDSEEVREQKHKTFVEKYEKQIKHFGMLRRWDDSQKYLSDNVHLVCEETANYLVIWCIDLEVEEKCALMEQVAHQTIVMQFILELAKSLKVDPRACFRQFFTKIKTADRQYMEGFNDELEAFKERVRGRAKLRIEKAMKEYEEEERKKRLGPGGLDPVEVYESLPEELQKCFDVKDVQMLQDAISKMDPTDAKYHMQRCIDSGLWVPNSKASEAKEGEEAGPGDPLLEAVPKTGDEKDVSV
# chain 2: ITVGQRIGSGSFGTVYKGKWHGDVAVKMLNVTAPTPQQLQAFKNEVGVLRKTRHVNILLFMGYSTKPQLAIVTQWCEGSSLYHHLHIIETKFEMIKLIDIARQTAQGMDYLHAKSIIHRDLKSNNIFLHEDLTVKIGDFGLATVKSRWSGSHQFEQLSGSILWMAPEVIRMQDKNPYSFQSDVYAFGIVLYELMTGQLPYSNINNRDQIIFMVGRGYLSPDLSKVRSNCPKAMKRLMAECLKKKRDERPLFPQILASIELL
# Variants of: B1
# Test: ITC; read off a plot
row,Variant,Kd
1,chain 1 Y4E,~1000 nM
2,"chain 1 Y4E, chain 1 Y298E",~2100 nM
3,chain 1 Y298E,~1900 nM
